Assay results from patent US20190144884A1 (University of Pennsylvania, published 2019).

Target: the molecule itself
Test: native gel, in-gel butyrylcholinesterase activity staining of mouse serum (self-association: dimer, tetramer)

B1: human butyrylcholinesterase (hBChE) expressed from AAV8.UbC.hIL2.BChE C1.IRES.PRIMA1.SV40 vector (enzyme)
chain: HTEDDIIIATKNGKVRGMNLTVFGGTVTAFLGIPYAQPPLGRLRFKKPQSLTKWSDIWNATKYANSCCQNIDQSFPGFHGSEMWNPNTDLSEDCLYLNVWIPAPKPKNATVLIWIYGGGFQTGTSSLHVYDGKFLARVERVIVVSMNYRVGALGFLALPGNPEAPGNMGLFDQQLALQWVQKNIAAFGGNPKSVTLFGESAGAASVSLHLLSPGSHSLFTRAILQSGSFNAPWAVTSLYEARNRTLNLAKLTGCSRENETEIIKCLRNKDPQEILLNEAFVVPYGTPLSVNFGPTVDGDFLTDMPDILLELGQFKKTQILVGVNKDEGTAFLVYGAPGFSKDNNSIITRKEFQEGLKIFFPGVSEFGKESILFHYTDWVDDQRPENYREALGDVVGDYNFICPALEFTKKFSEWGNNAFFYYFEHRSSKLPWPEWMGVMHGYEIEFVFGLPLERRDNYTKAEEILSRSIVKRWANFAKYGNPNETQNNSTSWPVFKSTEQKYLTLNTESTRIMTKLRAQQCRFWTSFFPKVLEMTGNIDEAEWEWKAGFHRWNNYMMDWKNQFNDYTSKKESCVGL
notes: Secreted into the serum of vector-injected RAG KO mice; also called hBuChE; Hu BChE
binding result: binds
